Substitutions are numbered along the chain they refer to. Each block holds one binder with its values, some of them ahead of it.
Molecular target: T1, soluble human GPC3 (human, UniProt P51654 25-563, limits assumed)
T1 construct: soluble human GPC3 as analyte; also called glypican 3
Assay: SPR (Biacore), soluble human GPC3

T1 sequence (P51654 other isoform, or with tags, fused parts or gaps limits assumed, form in doubt): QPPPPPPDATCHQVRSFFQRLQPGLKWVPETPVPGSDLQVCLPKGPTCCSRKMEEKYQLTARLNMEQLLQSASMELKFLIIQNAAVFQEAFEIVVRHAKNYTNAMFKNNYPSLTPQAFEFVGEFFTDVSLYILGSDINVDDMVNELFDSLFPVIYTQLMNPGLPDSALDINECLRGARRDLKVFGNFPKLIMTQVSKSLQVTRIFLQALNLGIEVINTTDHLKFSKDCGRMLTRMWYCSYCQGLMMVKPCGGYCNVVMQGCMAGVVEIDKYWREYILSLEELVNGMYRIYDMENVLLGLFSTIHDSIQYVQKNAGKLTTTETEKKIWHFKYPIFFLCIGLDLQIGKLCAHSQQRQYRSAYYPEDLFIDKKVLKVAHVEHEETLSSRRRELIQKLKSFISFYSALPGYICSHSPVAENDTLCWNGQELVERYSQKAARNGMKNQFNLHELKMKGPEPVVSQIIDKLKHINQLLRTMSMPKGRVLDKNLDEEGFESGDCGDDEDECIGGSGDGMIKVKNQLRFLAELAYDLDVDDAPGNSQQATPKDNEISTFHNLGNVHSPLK

B1: GCH065-G1dh/none-Hi-Kn010G3/L0201-k0 (antibody, human IgG1, kappa)
heavy: not shown
chain: EPKSSDKTHTCPPCPAPELLGGPSVFLFPPKPKDTLMISRTPEVTCVVVDVSHEDPEVKFNWYVDGVEVHNAKTKPREEQYNSTYRVVSVLTVLHQDWLNGKEYKCKVSNKALPAPIEKTISKAKGQPREPQVCTLPPSRDELTKNQVSLWCLVKGFYPSDIAVEWESNGQPENNYKTTPPVLDSDGSFFLYSKLTVDKSRWQQGNVFSCSVMHEALHNRYTQKSLSLSP
light: DIVMTQSPLSLPVTPGEPASISCRSSQPPVHSNRNTYLHWYQQKPGQAPRLLIYKVSNRFSGVPDRFSGSGSGTDFTLKISRVEAEDVGVYYCGQGTQVPYTFGQGTKLEIKRTVAAPSVFIFPPSDEQLKSGTASVVCLLNNFYPREAKVQWKVDNALQSGNSQESVTEQDSKDSTYSLSSTLTLSKADYEKHKVYACEVTHQGLSSPVTKSFNRGEC
notes: single-arm (one Fab)
Kd: 0.0774 nM

B2: GCH073-G1dh/none-Hi-Kn010G3/L0011-k0 (antibody, human IgG1, kappa)
heavy: not shown
chain: B1 chain
light: B1 light with P29L
notes: single-arm (one Fab)
Kd: 0.91 nM

B3: GCH094-G1dh/none-Hi-Kn010G3/L0011-k0 (antibody, human IgG1, kappa)
heavy: not shown
chain: B1 chain
light: B1 light with P29L
notes: single-arm (one Fab)
Kd: 3.88 nM

B6: GCH066-G1dh/none-Hi-Kn010G3/L0000-k0 (antibody, human IgG1, kappa)
heavy: not shown
chain: B1 chain
light: B1 light with P28S, P29L
notes: single-arm (one Fab)
Kd: 4.29 nM

B7: GCH094-G1dh/none-Hi-Kn010G3/L0201-k0 (antibody, human IgG1, kappa)
heavy: not shown
chain: B1 chain
light: B1 light
notes: single-arm (one Fab)
Kd: 1.17 nM

B10: GCH065-G1dh/none-Hi-Kn010G3/L0262-k0 (antibody, human IgG1, kappa)
heavy: not shown
chain: B1 chain
light: B1 light with G94A
notes: single-arm (one Fab)
Kd: 0.0118 nM

B11: GCH073-G1dh/none-Hi-Kn010G3/L0000-k0 (antibody, human IgG1, kappa)
heavy: not shown
chain: B1 chain
light: B1 light with P28S, P29L
notes: single-arm (one Fab)
Kd: 2 nM

B14: GCH065-G1dh/none-Hi-Kn010G3/L0272-k0 (antibody, human IgG1, kappa)
heavy: not shown
chain: B1 chain
light: B1 light with P29L, N35Q
notes: single-arm (one Fab)
Kd: 0.393 nM

B17: GCH073-G1dh/none-Hi-Kn010G3/L0201-k0 (antibody, human IgG1, kappa)
heavy: not shown
chain: B1 chain
light: B1 light
notes: single-arm (one Fab)
Kd: 0.035 nM

More lines, now with the values ahead:

Kd: 0.802 nM
B4: GCH098-G1dh/none-Hi-Kn010G3/L0011-k0 (antibody, human IgG1, kappa)
heavy: not shown
chain: B1 chain
light: B1 light with P29L
notes: single-arm (one Fab)

Kd: 0.111 nM
B5: GCH098-G1dh/none-Hi-Kn010G3/L0201-k0 (antibody, human IgG1, kappa)
heavy: not shown
chain: B1 chain
light: B1 light
notes: single-arm (one Fab)

Kd: 2.1 nM
B8: GCH094-G1dh/none-Hi-Kn010G3/L0272-k0 (antibody, human IgG1, kappa)
heavy: not shown
chain: B1 chain
light: B1 light with P29L, N35Q
notes: single-arm (one Fab)

Kd: 4.24 nM
B9: GCH099-G1dh/none-Hi-Kn010G3/L0000-k0 (antibody, human IgG1, kappa)
heavy: not shown
chain: B1 chain
light: B1 light with P28S, P29L
notes: single-arm (one Fab); printed with a small k in Hi-kn010G3

Kd: 0.00412 nM
B12: GCH094-G1dh/none-Hi-Kn010G3/L0246-k0 (antibody, human IgG1, kappa)
heavy: not shown
chain: B1 chain
light: B1 light with P28S, L38I, H39Q, G94S
notes: single-arm (one Fab)

Kd: 3.6 nM
B13: GCH094-G1dh/none-Hi-Kn010G3/L0270-k0 (antibody, human IgG1, kappa)
heavy: not shown
chain: B1 chain
light: B1 light with P28S, P29L, N35Q
notes: single-arm (one Fab)

Kd: 0.692 nM
B15: GCH094-G1dh/none-Hi-Kn010G3/L0271-k0 (antibody, human IgG1, kappa)
heavy: not shown
chain: B1 chain
light: B1 light with N35Q
notes: single-arm (one Fab)

Kd: 1.77 nM
B16: GCH098-G1dh/none-Hi-Kn010G3/L0000-k0 (antibody, human IgG1, kappa)
heavy: not shown
chain: B1 chain
light: B1 light with P28S, P29L
notes: single-arm (one Fab)

Source: patent publication US20210388110A1 (published 2021)
